In patent CN115785267A (SANYOU BIO INC, dated 2023):
Residue numbers refer to the chain shown, from its start. Blank lines part the entries; values can stand above or below the binder they belong to.

Experiments:
人IL-23-His [1] = target: T1, 人IL-23-His (human, UniProt Q9NPF7 20-189; P29460 23-328); assay: Biacore (SPR), human IL-23-His
T1 construct: range 20-189;range 23-328; also called 重组蛋白人IL-23
T1 sequence (looked up) 1: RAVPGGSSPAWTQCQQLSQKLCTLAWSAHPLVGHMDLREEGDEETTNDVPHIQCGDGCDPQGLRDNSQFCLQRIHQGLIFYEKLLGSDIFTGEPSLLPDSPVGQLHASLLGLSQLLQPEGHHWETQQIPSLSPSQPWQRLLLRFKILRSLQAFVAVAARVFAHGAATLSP
T1 sequence (looked up) 2: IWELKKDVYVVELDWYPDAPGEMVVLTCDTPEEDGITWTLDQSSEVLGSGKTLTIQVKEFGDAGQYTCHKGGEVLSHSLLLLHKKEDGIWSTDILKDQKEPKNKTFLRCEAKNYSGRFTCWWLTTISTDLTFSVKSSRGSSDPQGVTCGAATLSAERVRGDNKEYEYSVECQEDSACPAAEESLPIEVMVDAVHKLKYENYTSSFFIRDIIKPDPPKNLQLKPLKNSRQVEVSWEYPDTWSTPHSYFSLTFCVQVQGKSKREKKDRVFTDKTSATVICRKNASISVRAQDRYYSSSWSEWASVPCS

人IL-23-His [2] = target: T1, 人IL-23-His; assay: cell-based or functional assay

Kd (人IL-23-His [1]): 62.5 pM
koff (人IL-23-His [1]): 6.97e-06 s⁻¹
kon (人IL-23-His [1]): 111000 M⁻¹ s⁻¹
抑制IL-23激活小鼠脾细胞分泌IL-17: 剂量浓度 at which the inhibition is better than that of Guselkumab (人IL-23-His [2]): 0.063 µg/mL
B1: 改造后抗体S5-5HWTL (antibody, V domains shown)
VH: QVQLVQSGAEVKKPGSSVKVSCKASGGTFSSYAISWVRQAPGQGLEWMGGIIPIFGTANYAQKFQGRVTITADESTSTAYMELSSLRSEDTAVYYCARDRFGLYYYYGMDVWGQGTMVTVSS
VL: QSVLTQPPSVSGAPGQRVTISCTGGSSSIGAGYDVQWYRQLPGIAPKLLIYRSTNRPSGVPARFSGSKSGASASLAITGLQAEDEADYYCVSYDSSLGGYVFGTGTKVTVL

Kd (人IL-23-His [1]): 58.9 pM
koff (人IL-23-His [1]): 6.03e-06 s⁻¹
kon (人IL-23-His [1]): 102000 M⁻¹ s⁻¹
抑制IL-23激活小鼠脾细胞分泌IL-17: 剂量浓度 at which the inhibition is better than that of Guselkumab (人IL-23-His [2]): 0.056 µg/mL
B2: 改造后抗体S5-4H6L (antibody, V domains shown)
VH: B1 VH with G102S
VL: B1 VL with S26Q, S95A

Kd (人IL-23-His [1]): 108 pM
koff (人IL-23-His [1]): 1.18e-05 s⁻¹
kon (人IL-23-His [1]): 109000 M⁻¹ s⁻¹
抑制IL-23激活小鼠脾细胞分泌IL-17: 剂量浓度 at which the inhibition is better than that of Guselkumab (人IL-23-His [2]): 0.167 µg/mL
B3: 改造后抗体S5-15HWTL (antibody, V domains shown)
VH: B1 VH with Q1K, I51F, F101T, G102S
VL: B1 VL
